One substance from patent US8212003 can be followed below.

This data set deals with fusion protein SFH (SAK-GSIEGR-HV2).

Regarding blood coagulant factor FXa, the “Anticoagulant activities (clot method) after cleavage of SFH with 0.2 U of FXa for 10 min at 37° C.” value is recorded as 2560 ATU.
